Laboratory results: patent publication US20170015742A1 (published 2017)

Molecular target: recombinant human PDGF-BB (human, UniProt P01127 82-190)
Test: cell-based or functional assay

Sequence of recombinant human PDGF-BB (P01127 82-190 limits assumed): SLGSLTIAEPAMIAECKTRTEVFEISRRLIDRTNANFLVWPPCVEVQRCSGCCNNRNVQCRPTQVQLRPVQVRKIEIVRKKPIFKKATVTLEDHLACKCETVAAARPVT

NIH-3T3 hPDGF-BB Potency IC50	Binder
0.091 nM	9E8.4-SL-4G8.3 DVD-Ig (PR-1563998) (bispecific antibody, human IgG1, kappa, L234A L235A) heavy: not shown light: EFVLTQSPGTLSLSPGERATLSCERSSGDIGDSYVSWYQQKPGQAPRLVIYADDQRPSGIPDRFSGSGSGTDFTLTISRLEPEDFAVYYCQSYDINIDIVFGGGTKVEIKGTVAAPSVFIFPPDTVLTQSPATLSLSPGERATLSCRASESVSTHMHWYQQKPGQAPRLLIYGASNLESGVPARFSGSGSGTDFTLTISSLEPEDFAVYFCQQSWNDPFTFGQGTKLEIKRTVAAPSVFIFPPSDEQLKSGTASVVCLLNNFYPREAKVQWKVDNALQSGNSQESVTEQDSKDSTYSLSSTLTLSKADYEKHKVYACEVTHQGLSSPVTKSFNRGEC
5.51 nM	4G8.3-SS-9E8.4 DVD-Ig (PR-1564011) (bispecific antibody, human IgG1, kappa, L234A L235A) heavy: not shown light: DTVLTQSPATLSLSPGERATLSCRASESVSTHMHWYQQKPGQAPRLLIYGASNLESGVPARFSGSGSGTDFTLTISSLEPEDFAVYFCQQSWNDPFTFGQGTKLEIKRTVAAPEFVLTQSPGTLSLSPGERATLSCERSSGDIGDSYVSWYQQKPGQAPRLVIYADDQRPSGIPDRFSGSGSGTDFTLTISRLEPEDFAVYYCQSYDINIDIVFGGGTKVEIKGTVAAPSVFIFPPSDEQLKSGTASVVCLLNNFYPREAKVQWKVDNALQSGNSQESVTEQDSKDSTYSLSSTLTLSKADYEKHKVYACEVTHQGLSSPVTKSFNRGEC
0.104 nM	9E8.4-LS-4G8.3 DVD-Ig (PR-1564009) (bispecific antibody, human IgG1, kappa, L234A L235A) heavy: not shown light: EFVLTQSPGTLSLSPGERATLSCERSSGDIGDSYVSWYQQKPGQAPRLVIYADDQRPSGIPDRFSGSGSGTDFTLTISRLEPEDFAVYYCQSYDINIDIVFGGGTKVEIKGTVAAPDTVLTQSPATLSLSPGERATLSCRASESVSTHMHWYQQKPGQAPRLLIYGASNLESGVPARFSGSGSGTDFTLTISSLEPEDFAVYFCQQSWNDPFTFGQGTKLEIKRTVAAPSVFIFPPSDEQLKSGTASVVCLLNNFYPREAKVQWKVDNALQSGNSQESVTEQDSKDSTYSLSSTLTLSKADYEKHKVYACEVTHQGLSSPVTKSFNRGEC
0.572 nM	4G8.3-SL-9E8.4E DVD-Ig (PR-1575834) (bispecific antibody, human IgG1, kappa, L234A L235A) heavy: EVQLVQSGSELKKPGASVKVSCKASGYTFTNYGMYWVRQAPGQGLEWMGWINTETGKPTYADDFKGRFVFSLDTSVSTAYLQISSLKAEDTAVYYCARTNYYYRSYIFYFDYWGQGTMVTVSSASTKGPEVTLRESGPALVKPTQTLTLTCTFSGFSLSTYGMGVGWIRQPPGKALEWLANIWWDDDKYYNPSLKNRLTISKDTSKNQVVLTMTNMDPVDTATYYCARIESIGTTYSFDYWGQGTMVTVSSASTKGPSVFPLAPSSKSTSGGTAALGCLVKDYFPEPVTVSWNSGALTSGVHTFPAVLQSSGLYSLSSVVTVPSSSLGTQTYICNVNHKPSNTKVDKKVEPKSCDKTHTCPPCPAPEAAGGPSVFLFPPKPKDTLMISRTPEVTCVVVDVSHEDPEVKFNWYVDGVEVHNAKTKPREEQYNSTYRVVSVLTVLHQDWLNGKEYKCKVSNKALPAPIEKTISKAKGQPREPQVYTLPPSREEMTKNQVSLTCLVKGFYPSDIAVEWESNGQPENNYKTTPPVLDSDGSFFLYSKLTVDKSRWQQGNVFSCSVMHEALHNAYTQKSLSLSPGK light: DTVLTQSPATLSLSPGERATLSCRASESVSTHMHWYQQKPGQAPRLLIYGASNLESGVPARFSGSGSGTDFTLTISSLEPEDFAVYFCQQSWNDPFTFGQGTKLEIKRTVAAPSVFIFPPEFVLTQSPGTLSLSPGERATLSCERSSGDIGESYVSWYQQKPGQAPRLVIYADDQRPSGIPDRFSGSGSGTDFTLTISRLEPEDFAVYYCQSYDINIDIVFGGGTKVEIKRTVAAPSVFIFPPSDEQLKSGTASVVCLLNNFYPREAKVQWKVDNALQSGNSQESVTEQDSKDSTYSLSSTLTLSKADYEKHKVYACEVTHQGLSSPVTKSFNRGEC
0.043 nM	CODV011 cross-over DVD-Ig (PR-1575521) (bispecific antibody, human IgG1, kappa, L234A L235A) heavy: EVQLVQSGSELKKPGASVKVSCKASGYTFTNYGMYWVRQAPGQGLEWMGWINTETGKPTYADDFKGRFVFSLDTSVSTAYLQISSLKAEDTAVYYCARTNYYYRSYIFYFDYWGQGTMVTVSSGGGGSGGGGSEFVLTQSPGTLSLSPGERATLSCERSSGDIGDSYVSWYQQKPGQAPRLVIYADDQRPSGIPDRFSGSGSGTDFTLTISRLEPEDFAVYYCQSYDINIDIVFGGGTKVEIKGGGSGASTKGPSVFPLAPSSKSTSGGTAALGCLVKDYFPEPVTVSWNSGALTSGVHTFPAVLQSSGLYSLSSVVTVPSSSLGTQTYICNVNHKPSNTKVDKKVEPKSCDKTHTCPPCPAPEAAGGPSVFLFPPKPKDTLMISRTPEVTCVVVDVSHEDPEVKFNWYVDGVEVHNAKTKPREEQYNSTYRVVSVLTVLHQDWLNGKEYKCKVSNKALPAPIEKTISKAKGQPREPQVYTLPPSREEMTKNQVSLTCLVKGFYPSDIAVEWESNGQPENNYKTTPPVLDSDGSFFLYSKLTVDKSRWQQGNVFSCSVMHEALHNAYTQKSLSLSPGK light: EVTLRESGPALVKPTQTLTLTCTFSGFSLSTYGMGVGWIRQPPGKALEWLANIWWDDDKYYNPSLKNRLTISKDTSKNQVVLTMTNMDPVDTATYYCARIESIGTTYSFDYWGQGTMVTVSSGGGGSGGGGSDTVLTQSPATLSLSPGERATLSCRASESVSTHMHWYQQKPGQAPRLLIYGASNLESGVPARFSGSGSGTDFTLTISSLEPEDFAVYFCQQSWNDPFTFGQGTKLEIKGGGSGRTVAAPSVFIFPPSDEQLKSGTASVVCLLNNFYPREAKVQWKVDNALQSGNSQESVTEQDSKDSTYSLSSTLTLSKADYEKHKVYACEVTHQGLSSPVTKSFNRGEC
> 5 nM	4G8.3-GS-9E8.4E DVD-Ig (PR-1575832) (bispecific antibody, human IgG1, kappa, L234A L235A) heavy: EVQLVQSGSELKKPGASVKVSCKASGYTFTNYGMYWVRQAPGQGLEWMGWINTETGKPTYADDFKGRFVFSLDTSVSTAYLQISSLKAEDTAVYYCARTNYYYRSYIFYFDYWGQGTMVTVSSGGGGSGGGGSEVTLRESGPALVKPTQTLTLTCTFSGFSLSTYGMGVGWIRQPPGKALEWLANIWWDDDKYYNPSLKNRLTISKDTSKNQVVLTMTNMDPVDTATYYCARIESIGTTYSFDYWGQGTMVTVSSASTKGPSVFPLAPSSKSTSGGTAALGCLVKDYFPEPVTVSWNSGALTSGVHTFPAVLQSSGLYSLSSVVTVPSSSLGTQTYICNVNHKPSNTKVDKKVEPKSCDKTHTCPPCPAPEAAGGPSVFLFPPKPKDTLMISRTPEVTCVVVDVSHEDPEVKFNWYVDGVEVHNAKTKPREEQYNSTYRVVSVLTVLHQDWLNGKEYKCKVSNKALPAPIEKTISKAKGQPREPQVYTLPPSREEMTKNQVSLTCLVKGFYPSDIAVEWESNGQPENNYKTTPPVLDSDGSFFLYSKLTVDKSRWQQGNVFSCSVMHEALHNAYTQKSLSLSPGK light: DTVLTQSPATLSLSPGERATLSCRASESVSTHMHWYQQKPGQAPRLLIYGASNLESGVPARFSGSGSGTDFTLTISSLEPEDFAVYFCQQSWNDPFTFGQGTKLEIKRGGSGGGGSGEFVLTQSPGTLSLSPGERATLSCERSSGDIGESYVSWYQQKPGQAPRLVIYADDQRPSGIPDRFSGSGSGTDFTLTISRLEPEDFAVYYCQSYDINIDIVFGGGTKVEIKRTVAAPSVFIFPPSDEQLKSGTASVVCLLNNFYPREAKVQWKVDNALQSGNSQESVTEQDSKDSTYSLSSTLTLSKADYEKHKVYACEVTHQGLSSPVTKSFNRGEC
> 5 nM	CODV009 cross-over DVD-Ig (PR-1571821) (bispecific antibody, human IgG1, kappa, L234A L235A) heavy: EVQLVQSGSELKKPGASVKVSCKASGYTFTNYGMYWVRQAPGQGLEWMGWINTETGKPTYADDFKGRFVFSLDTSVSTAYLQISSLKAEDTAVYYCARTNYYYRSYIFYFDYWGQGTMVTVSSGEVTLRESGPALVKPTQTLTLTCTFSGFSLSTYGMGVGWIRQPPGKALEWLANIWWDDDKYYNPSLKNRLTISKDTSKNQVVLTMTNMDPVDTATYYCARIESIGTTYSFDYWGQGTMVTVSSGGASTKGPSVFPLAPSSKSTSGGTAALGCLVKDYFPEPVTVSWNSGALTSGVHTFPAVLQSSGLYSLSSVVTVPSSSLGTQTYICNVNHKPSNTKVDKKVEPKSCDKTHTCPPCPAPEAAGGPSVFLFPPKPKDTLMISRTPEVTCVVVDVSHEDPEVKFNWYVDGVEVHNAKTKPREEQYNSTYRVVSVLTVLHQDWLNGKEYKCKVSNKALPAPIEKTISKAKGQPREPQVYTLPPSREEMTKNQVSLTCLVKGFYPSDIAVEWESNGQPENNYKTTPPVLDSDGSFFLYSKLTVDKSRWQQGNVFSCSVMHEALHNAYTQKSLSLSPGK light: EFVLTQSPGTLSLSPGERATLSCERSSGDIGDSYVSWYQQKPGQAPRLVIYADDQRPSGIPDRFSGSGSGTDFTLTISRLEPEDFAVYYCQSYDINIDIVFGGGTKVEIKGGGSGGGDTVLTQSPATLSLSPGERATLSCRASESVSTHMHWYQQKPGQAPRLLIYGASNLESGVPARFSGSGSGTDFTLTISSLEPEDFAVYFCQQSWNDPFTFGQGTKLEIKGGGSGRTVAAPSVFIFPPSDEQLKSGTASVVCLLNNFYPREAKVQWKVDNALQSGNSQESVTEQDSKDSTYSLSSTLTLSKADYEKHKVYACEVTHQGLSSPVTKSFNRGEC
2.14 nM	CODV010 cross-over DVD-Ig (PR-1571823) (bispecific antibody, human IgG1, kappa, L234A L235A) heavy: EVTLRESGPALVKPTQTLTLTCTFSGFSLSTYGMGVGWIRQPPGKALEWLANIWWDDDKYYNPSLKNRLTISKDTSKNQVVLTMTNMDPVDTATYYCARIESIGTTYSFDYWGQGTMVTVSSGEVQLVQSGSELKKPGASVKVSCKASGYTFTNYGMYWVRQAPGQGLEWMGWINTETGKPTYADDFKGRFVFSLDTSVSTAYLQISSLKAEDTAVYYCARTNYYYRSYIFYFDYWGQGTMVTVSSGGASTKGPSVFPLAPSSKSTSGGTAALGCLVKDYFPEPVTVSWNSGALTSGVHTFPAVLQSSGLYSLSSVVTVPSSSLGTQTYICNVNHKPSNTKVDKKVEPKSCDKTHTCPPCPAPEAAGGPSVFLFPPKPKDTLMISRTPEVTCVVVDVSHEDPEVKFNWYVDGVEVHNAKTKPREEQYNSTYRVVSVLTVLHQDWLNGKEYKCKVSNKALPAPIEKTISKAKGQPREPQVYTLPPSREEMTKNQVSLTCLVKGFYPSDIAVEWESNGQPENNYKTTPPVLDSDGSFFLYSKLTVDKSRWQQGNVFSCSVMHEALHNAYTQKSLSLSPGK light: DTVLTQSPATLSLSPGERATLSCRASESVSTHMHWYQQKPGQAPRLLIYGASNLESGVPARFSGSGSGTDFTLTISSLEPEDFAVYFCQQSWNDPFTFGQGTKLEIKGGGSGGGEFVLTQSPGTLSLSPGERATLSCERSSGDIGDSYVSWYQQKPGQAPRLVIYADDQRPSGIPDRFSGSGSGTDFTLTISRLEPEDFAVYYCQSYDINIDIVFGGGTKVEIKGGGSGRTVAAPSVFIFPPSDEQLKSGTASVVCLLNNFYPREAKVQWKVDNALQSGNSQESVTEQDSKDSTYSLSSTLTLSKADYEKHKVYACEVTHQGLSSPVTKSFNRGEC
